Laboratory results taken from the RNAGym collection of RNA variant scans (doi:10.1021/acssynbio.7b00057).

B1: Pistol ribozyme (parent)
chain: GGGUCGUUGUUCCAUAAUCGCGUGGAUAUGGCACGCAAGUUUCUACCGGGCACCGUAAAUGUCCGACUGGAGCCGUUCGGGCGGCUAUAAACAGACCUCAGGCCCGAAGCGUGGCGGCACCUGCCGCCGGUGGUAAAAAAGAUCGGAAGAGCACACGUCU

Variants of: B1
Assay: aptazyme ON/OFF ratio, guanine; higher = stronger switching; co-transcriptional cleavage with and without guanine

Row | Variant | aptazyme ON/OFF ratio
1 | GGGUCGUACCGACAUAAUCGCGUGGAUAUGGCACGCAAGUUUCUACCGGGCACCGUAAAUGUCCGACUGGAGCCGUUCGGGCGGCUAUAAACAGACCUCAGGCCCGAAGCGUGGCGGCACCUGCCGCCGGUGGUAAAAAAGAUCGGAAGAGCACACGUCU [U8A G9C U10C U11G C12A] | 1.07
2 | GGGUCGUACCAACAUAAUCGCGUGGAUAUGGCACGCAAGUUUCUACCGGGCACCGUAAAUGUCCGACUGGAGCCGUUCGGGCGGCUAUAAACAGACCUCAGGCCCGAAGCGUGGCGGCACCUGCCGCCGGUGGUAAAAAAGAUCGGAAGAGCACACGUCU [U8A G9C U10C U11A C12A] | 1.06
3 | GGGUCGUACCAGCAUAAUCGCGUGGAUAUGGCACGCAAGUUUCUACCGGGCACCGUAAAUGUCCGACUGGAGCCGUUCGGGCGGCUAUAAACAGACCUCAGGCCCGAAGCGUGGCGGCACCUGCCGCCGGUGGUAAAAAAGAUCGGAAGAGCACACGUCU [U8A G9C U10C U11A C12G] | 1.03
4 | GGGUCGUACCAUCAUAAUCGCGUGGAUAUGGCACGCAAGUUUCUACCGGGCACCGUAAAUGUCCGACUGGAGCCGUUCGGGCGGCUAUAAACAGACCUCAGGCCCGAAGCGUGGCGGCACCUGCCGCCGGUGGUAAAAAAGAUCGGAAGAGCACACGUCU [U8A G9C U10C U11A C12U] | 1.13
5 | GGGUCGUACCGAGAUAAUCGCGUGGAUAUGGCACGCAAGUUUCUACCGGGCACCGUAAAUGUCCGACUGGAGCCGUUCGGGCGGCUAUAAACAGACCUCAGGCCCGAAGCGUGGCGGCACCUGCCGCCGGUGGUAAAAAAGAUCGGAAGAGCACACGUCU [U8A G9C U10C U11G C12A C13G] | 1.08
6 | GGGUCGUACCGAAAUAAUCGCGUGGAUAUGGCACGCAAGUUUCUACCGGGCACCGUAAAUGUCCGACUGGAGCCGUUCGGGCGGCUAUAAACAGACCUCAGGCCCGAAGCGUGGCGGCACCUGCCGCCGGUGGUAAAAAAGAUCGGAAGAGCACACGUCU [U8A G9C U10C U11G C12A C13A] | 1.06
7 | GGGUCGUACCGAUAUAAUCGCGUGGAUAUGGCACGCAAGUUUCUACCGGGCACCGUAAAUGUCCGACUGGAGCCGUUCGGGCGGCUAUAAACAGACCUCAGGCCCGAAGCGUGGCGGCACCUGCCGCCGGUGGUAAAAAAGAUCGGAAGAGCACACGUCU [U8A G9C U10C U11G C12A C13U] | 1.02
8 | GGGUCGUACCCGCAUAAUCGCGUGGAUAUGGCACGCAAGUUUCUACCGGGCACCGUAAAUGUCCGACUGGAGCCGUUCGGGCGGCUAUAAACAGACCUCAGGCCCGAAGCGUGGCGGCACCUGCCGCCGGUGGUAAAAAAGAUCGGAAGAGCACACGUCU [U8A G9C U10C U11C C12G] | 1.01
9 | GGGUCGUACCCACAUAAUCGCGUGGAUAUGGCACGCAAGUUUCUACCGGGCACCGUAAAUGUCCGACUGGAGCCGUUCGGGCGGCUAUAAACAGACCUCAGGCCCGAAGCGUGGCGGCACCUGCCGCCGGUGGUAAAAAAGAUCGGAAGAGCACACGUCU [U8A G9C U10C U11C C12A] | 1.04
10 | GGGUCGUACCCUCAUAAUCGCGUGGAUAUGGCACGCAAGUUUCUACCGGGCACCGUAAAUGUCCGACUGGAGCCGUUCGGGCGGCUAUAAACAGACCUCAGGCCCGAAGCGUGGCGGCACCUGCCGCCGGUGGUAAAAAAGAUCGGAAGAGCACACGUCU [U8A G9C U10C U11C C12U] | 1
11 | GGGUCGUACCGCCAUAAUCGCGUGGAUAUGGCACGCAAGUUUCUACCGGGCACCGUAAAUGUCCGACUGGAGCCGUUCGGGCGGCUAUAAACAGACCUCAGGCCCGAAGCGUGGCGGCACCUGCCGCCGGUGGUAAAAAAGAUCGGAAGAGCACACGUCU [U8A G9C U10C U11G] | 0.775
12 | GGGUCGUACCCCCAUAAUCGCGUGGAUAUGGCACGCAAGUUUCUACCGGGCACCGUAAAUGUCCGACUGGAGCCGUUCGGGCGGCUAUAAACAGACCUCAGGCCCGAAGCGUGGCGGCACCUGCCGCCGGUGGUAAAAAAGAUCGGAAGAGCACACGUCU [U8A G9C U10C U11C] | 1.01
13 | GGGUCGUACCCUUAUAAUCGCGUGGAUAUGGCACGCAAGUUUCUACCGGGCACCGUAAAUGUCCGACUGGAGCCGUUCGGGCGGCUAUAAACAGACCUCAGGCCCGAAGCGUGGCGGCACCUGCCGCCGGUGGUAAAAAAGAUCGGAAGAGCACACGUCU [U8A G9C U10C U11C C12U C13U] | 1.03
14 | GGGUCGUACCCUGAUAAUCGCGUGGAUAUGGCACGCAAGUUUCUACCGGGCACCGUAAAUGUCCGACUGGAGCCGUUCGGGCGGCUAUAAACAGACCUCAGGCCCGAAGCGUGGCGGCACCUGCCGCCGGUGGUAAAAAAGAUCGGAAGAGCACACGUCU [U8A G9C U10C U11C C12U C13G] | 1.01
15 | GGGUCGUACCCUAAUAAUCGCGUGGAUAUGGCACGCAAGUUUCUACCGGGCACCGUAAAUGUCCGACUGGAGCCGUUCGGGCGGCUAUAAACAGACCUCAGGCCCGAAGCGUGGCGGCACCUGCCGCCGGUGGUAAAAAAGAUCGGAAGAGCACACGUCU [U8A G9C U10C U11C C12U C13A] | 1.01
16 | GGGUCGUACCCCUAUAAUCGCGUGGAUAUGGCACGCAAGUUUCUACCGGGCACCGUAAAUGUCCGACUGGAGCCGUUCGGGCGGCUAUAAACAGACCUCAGGCCCGAAGCGUGGCGGCACCUGCCGCCGGUGGUAAAAAAGAUCGGAAGAGCACACGUCU [U8A G9C U10C U11C C13U] | 0.998
17 | GGGUCGUACCCCAAUAAUCGCGUGGAUAUGGCACGCAAGUUUCUACCGGGCACCGUAAAUGUCCGACUGGAGCCGUUCGGGCGGCUAUAAACAGACCUCAGGCCCGAAGCGUGGCGGCACCUGCCGCCGGUGGUAAAAAAGAUCGGAAGAGCACACGUCU [U8A G9C U10C U11C C13A] | 1.02
18 | GGGUCGUACCCCGAUAAUCGCGUGGAUAUGGCACGCAAGUUUCUACCGGGCACCGUAAAUGUCCGACUGGAGCCGUUCGGGCGGCUAUAAACAGACCUCAGGCCCGAAGCGUGGCGGCACCUGCCGCCGGUGGUAAAAAAGAUCGGAAGAGCACACGUCU [U8A G9C U10C U11C C13G] | 1.06
